Reference: paper doi:10.1101/2020.02.25.965475
Where a chain is given by its changes, count along the chain named.

Key:
Test in all cases: EMSA
[1] = molecular target: T1, FLAG-TEN N338Y (Cucumis sativus (cucumber), UniProt A0A0A0KSL1 1-395, N338Y)
T1 sequence: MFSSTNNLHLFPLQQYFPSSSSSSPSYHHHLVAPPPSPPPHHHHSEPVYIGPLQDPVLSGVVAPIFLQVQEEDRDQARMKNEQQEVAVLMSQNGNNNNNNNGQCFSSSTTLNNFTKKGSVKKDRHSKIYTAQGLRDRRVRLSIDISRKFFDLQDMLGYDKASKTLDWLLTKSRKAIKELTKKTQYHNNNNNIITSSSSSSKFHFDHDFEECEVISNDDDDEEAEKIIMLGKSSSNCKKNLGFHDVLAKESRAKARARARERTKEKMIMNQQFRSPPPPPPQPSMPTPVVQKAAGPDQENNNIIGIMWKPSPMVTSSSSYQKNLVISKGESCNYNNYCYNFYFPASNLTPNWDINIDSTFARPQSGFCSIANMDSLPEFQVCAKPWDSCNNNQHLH

[2] = molecular target: T2, FLAG-ΔN121 (TCP+R+C130) (Cucumis sativus (cucumber), UniProt A0A0A0KSL1 122-395, del1-121)
T2 sequence: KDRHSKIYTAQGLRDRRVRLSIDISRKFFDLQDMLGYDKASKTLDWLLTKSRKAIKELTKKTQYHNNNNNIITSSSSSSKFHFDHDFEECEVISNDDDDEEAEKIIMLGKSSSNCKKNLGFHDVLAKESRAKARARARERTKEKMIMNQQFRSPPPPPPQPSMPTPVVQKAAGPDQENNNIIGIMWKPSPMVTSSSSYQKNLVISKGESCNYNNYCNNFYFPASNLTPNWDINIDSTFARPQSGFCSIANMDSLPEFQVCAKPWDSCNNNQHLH

[3] = molecular target: T3, FLAG-TEN (Cucumis sativus (cucumber), UniProt A0A0A0KSL1 1-395)
T3 sequence: T1 sequence with Y338N

[4] = molecular target: T4, MBP-C (Cucumis sativus (cucumber), UniProt A0A0A0KSL1 265-395)
T4 sequence: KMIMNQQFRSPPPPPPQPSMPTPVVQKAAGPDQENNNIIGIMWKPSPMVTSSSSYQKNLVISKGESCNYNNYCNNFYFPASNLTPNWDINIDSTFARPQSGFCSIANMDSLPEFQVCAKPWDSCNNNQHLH

B1: CTCCGCC probe (dsDNA)
DNA 1: AAATTAAGAATATTTAACTCCGCCAATTCAAATATAAAGTATTAATT
DNA 2: AATTAATACTTTATATTTGAATTGGCGGAGTTAAATATTCTTAATTT
Question: Which results are given for B1?
Answer: binding result [1]: no binding; binding result [2]: binds; binding result [3]: binds; binding result [4]: no binding

B2: GGTCCC probe (GTGGTCCCAC) (dsDNA)
DNA 1: AAATTAAGAATATTGTGGTCCCACTCAAATATAAAGTATTAATT
DNA 2: AATTAATACTTTATATTTGAGTGGGACCACAATATTCTTAATTT
Question: Does B2 bind [1]?
Answer: Result: binds
